Laboratory results taken from patent US20250368754A1 (KANAPH THERAPEUTICS, published 2025).

T1: recombinant human herpes virus entry mediator (HVEM) (human, UniProt Q92956 39-202)
T1 construct: neither construct is described; also called human HVEM; recombinant human HVEM protein (R&D systems)
T1 sequence (looked up): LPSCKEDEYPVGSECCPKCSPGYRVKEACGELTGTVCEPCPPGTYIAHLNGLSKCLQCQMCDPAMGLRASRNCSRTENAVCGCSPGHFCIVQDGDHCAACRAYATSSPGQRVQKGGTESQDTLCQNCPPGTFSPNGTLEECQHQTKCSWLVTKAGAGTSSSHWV


Legend:
[1] = target: T1, recombinant human herpes virus entry …; experiment: SPR, human HVEM immobilised on CM5, fusion protein as analyte, 1:1 binding model
Procedure: (§1) Specifically, the surface of the CM5 chip was activated with a 1:1 mixture of […], and 5 to 6 μg/mL of human HVEM was immobilized for 60 seconds at a rate of 10 μL/min. The remaining active ester groups were blocked with 1 M ethanolamine. T3.01, T3.07, T3.09, T3.14, and T3.18 were each diluted to 100 nM in 1×HBS-EP+buffer solution and diluted by serial dilution. The diluted fusion proteins were reacted at a rate of 30 μL/min. The association and dissociation times were 180 seconds and 400 seconds, respectively. After the dissociation step, stabilization was performed for 60 seconds, and then the regeneration step was performed for 30 seconds with a 10 mM glycine pH 1.5 solution at a rate of 30 μL/min.

[2] = target: T1, recombinant human herpes virus entry …; experiment: SPR, human HVEM immobilised on the chip (title: PRO096; 6ug/ml human HVEM pH5.5), T3.14 as analyte 0.78125-100 nM
Procedure: as §1

Binder	Kd [1] [nM]	koff [1] [s⁻¹]	kon [1] [M⁻¹ s⁻¹]	binding result [2]
T3.01 (anti-hu FAP/hu scLIGHT3, hu IgG1 DANG) (bispecific antibody, Knob-into-hole heterodimer: one anti-FAP Fab arm and one single-chain human LIGHT (91-240) homotrimer arm) heavy: QVQLVQSGAEVKKPGASVKVSCKTSRYTFTEYTIHWVRQAPGQRLEWIGGINPNNGIPNYNQKFKGRVTITVDTSASTAYMELSSLRSEDTAVYYCARRRIAYGYDEGHAMDYWGQGTLVTVSSASTKGPSVFPLAPSSKSTSGGTAALGCLVKDYFPEPVTVSWNSGALTSGVHTFPAVLQSSGLYSLSSVVTVPSSSLGTQTYICNVNHKPSNTKVDKKVEPKSCDKTHTCPPCPAPELLGGPSVFLFPPKPKDTLMISRTPEVTCVVVAVSHEDPEVKFNWYVDGVEVHNAKTKPREEQYGSTYRVVSVLTVLHQDWLNGKEYKCKVSNKALPAPIEKTISKAKGQPREPQVYTLPPSRDELTKNQVSLWCLVKGFYPSDIAVEWESNGQPENNYKTTPPVLDSDGSFFLYSKLTVDKSRWQQGNVFSCSVMHEALHNHYTQKSLSLSPGK light: not shown not shown	4.24	0.00119	281000	
T3.14 (anti-hu FAP/hu scLIGHT-LTb2, hu IgG1 DANG) (bispecific antibody, Knob-into-hole; single-chain heterotrimer of one human LIGHT and two human lymphotoxin beta (87-243)) heavy: QVQLVQSGAEVKKPGASVKVSCKTSRYTFTEYTIHWVRQAPGQRLEWIGGINPNNGIPNYNQKFKGRVTITVDTSASTAYMELSSLRSEDTAVYYCARRRIAYGYDEGHAMDYWGQGTLVTVSSASTKGPSVFPLAPSSKSTSGGTAALGCLVKDYFPEPVTVSWNSGALTSGVHTFPAVLQSSGLYSLSSVVTVPSSSLGTQTYICNVNHKPSNTKVDKKVEPKSCDKTHTCPPCPAPELLGGPSVFLFPPKPKDTLMISRTPEVTCVVVAVSHEDPEVKFNWYVDGVEVHNAKTKPREEQYGSTYRVVSVLTVLHQDWLNGKEYKCKVSNKALPAPIEKTISKAKGQPREPQVYTLPPSRDELTKNQVSLWCLVKGFYPSDIAVEWESNGQPENNYKTTPPVLDSDGSFFLYSKLTVDKSRWQQGNVFSCSVMHEALHNHYTQKSLSLSPGK light: not shown not shown				no binding (tested: 100 nM)
